Measurements as given in publication PMC7749166 (Communications Biology, 2020).
Where a chain is given by its changes, count along the chain named.

How the values were obtained:
[1] = target: T1, C5aR^R175V/Y258V (Homo sapiens, UniProt P21730, R175V/Y258V); assay: 35S-GTPγS binding assay, R175V/Y258V mutant; format: biochemical; conditions: increased concentration of C5a, Fig. S7
T1 construct: Flag (N); His8 (C); made in house; host or cells: HEK-293S cells (BacMam baculovirus)
T1 sequence (P21730 1-350 R175V/Y258V): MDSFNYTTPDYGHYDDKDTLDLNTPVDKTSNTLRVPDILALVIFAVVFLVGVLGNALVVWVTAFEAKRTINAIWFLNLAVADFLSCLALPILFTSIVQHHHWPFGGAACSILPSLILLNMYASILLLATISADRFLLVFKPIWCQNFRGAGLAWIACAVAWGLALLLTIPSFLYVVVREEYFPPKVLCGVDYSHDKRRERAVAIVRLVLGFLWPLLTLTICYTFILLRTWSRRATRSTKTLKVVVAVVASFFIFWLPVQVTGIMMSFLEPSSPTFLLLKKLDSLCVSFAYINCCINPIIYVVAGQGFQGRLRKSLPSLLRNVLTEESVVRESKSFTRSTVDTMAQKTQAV
Procedure: (§1) Mutant variants (D282A, D282N, and R175V/Y258V) were generated based on the wtC5aR construct and fully sequenced. Mutant variants were expressed following the same method as for wtC5aR except for some modifications. HEK-293S cells expressing each mutant were pelleted by centrifugation and resuspended in 20 ml buffer containing 20 mM HEPES pH 7.5, 100 mM NaCl, 0.2 μg ml^−1 leupeptin, and 150 μg ml^−1 benzamidine. After 20 min incubation at 25 °C, 20 ml 2X solubilization buffer containing 20 mM HEPES pH 7.5, 100 mM NaCl, 1% dodecyl-maltoside (DDM), 0.2% cholesterol hemisuccinate (CHS), 20% glycerol, 0.2 μg ml^−1 leupeptin, 150 μg ml^−1 benzamidine, and 5 U Salt Active Nuclease (Sigma) was added. Cell membranes were solubilized for 1.5 h at 4 °C. […]
(§2) For the ^35S-GTPγS binding assays, the membrane of HEK293S GnTI^− cells expressing wtC5aR (~200 µg ml^−1) or mutant variants was incubated with 200 nM purified Gi protein for 30 min on ice in buffer containing 20 mM HEPES pH 7.5, 100 mM NaCl, 5 mM MgCl2, 3 μg ml^−1 BSA, 0.1 μM TCEP, and 5 μM GDP to get the receptor and Gi complex. […] The radiation of bound ^35S-GTPγS was measured on a Beckman LS6500 scintillation counter to determine the binding of ^35S-GTPγS to Gi induced by C5aR activation. […]

[2] = test system: C5aR2; conditions: cited from earlier work
Excerpt: Our mechanistic insights into the C5a binding process to C5aR could offer a new framework to a better understanding or the intriguing functional divergence between the two C5a receptors and could potentially allow delinea ...

[3] = target: T2, C5aR^D282A (Homo sapiens, UniProt P21730, D282A); assay: 35S-GTPγS binding assay, D282A mutant; format: biochemical; conditions: increased concentration of C5a, Fig. S7
T2 construct: Flag (N); His8 (C); made in house; host or cells: HEK-293S cells (BacMam baculovirus)
T2 sequence (P21730 1-350 D282A): T1 sequence (P21730 1-350 R175V/Y258V) with V175R, V258Y, D282A
Procedure: as §1, §2

B1: C5a: C5a, a large 74-amino acid glycoprotein; endogenous ligand of C5aR (His6-tag at N-terminal end for AFM tips) (protein)
chain: TLQKKIEEIAAKYKHSVVKKCCYDGACVNNDETCEQRAARISLGPRCIKAFTECCVVASQLRANISHKDMQLGR
modifications: left off: His6, N-terminal, kept
Question: Which “Gi-protein activation vs C5aR^WT” value [1] does the source give for B1 here?
Answer: strong reduction in the Gi-protein activation

Question: What about the “C5a binding to C5aR2 upon mutation of three N-terminal tyrosine residues” value [2] of the same molecule?
Answer: did not significantly change C5a binding to C5aR2

Question: And the “G-protein coupling at C5aR2” value [2]?
Answer: without any detectable G-protein coupling

Question: What about the “β arrestins (βarr) recruitment at C5aR2” value [2] of the same molecule?
Answer: robust β arrestins (βarr) recruitment

Question: And the “Gi-protein activation vs C5aR^WT” value [3]?
Answer: strong reduction in the Gi-protein activation
